Here are results for one protein from patent US20250228964A1 (CODIAK BIOSCIENCES, published 2025).

The data set deals with the molecule itself. As to the kind of experiment: SEC-MALS (eluted at 198 kDa against the predicted 98 kDa) and analytical SEC with 0, 1M or 2M GuHCl. As to the method: To confirm proper expression of the PTGFRN ECD, the purified protein was analyzed by size exclusion chromatography/multiangle light scattering (SEC-MALS), using BSA and an anti-VLA4 antibody as standards for comparison. Recombinant PTGFRN ECD was eluted at ˜2x its predicted molecular weight (198 kDa as opposed to the predicted molecular weight, 98 kDa; FIG. 20A). To determine whether PTGFRN ECD forms a homodimer in solution, recombinant PTGFRN ECD was run over an analytical SEC column (Tosoh, 7.8×30cm, G3000SW xl) in PBS in the absence of guanidium chloride (GuHCl) or in the presence of 1M or 2M guanidinium chloride (GuHCl).

B1: recombinant PTGFRN extracellular domain (ECD), purified, Fc tag removed with thrombin (receptor)
chain: VPTATLVRVVGTELVIPCNVSDYDGPSEQNFDWSFSSLGSSFVELASTWEVGFPAQLYQERLQRGEILLRRTANDAVELHIKNVQPSDQGHYKCSTPSTDATVQGNYEDTVQVKVLADSLHVGPSARPPPSLSLREGEPFELRCTAASASPLHTHLALLWEVHRGPARRSVLALTHEGRFHPGLGYEQRYHSGDVRLDTVGSDAYRLSVSRALSADQGSYRCIVSEWIAEQGNWQEIQEKAVEVATVVIQPSVLRAAVPKNVSVAEGKELDLTCNITTDRADDVRPEVTWSFSRMPDSTLPGSRVLARLDRDSLVHSSPHVALSHVDARSYHLLVRDVSKENSGYYYCHVSLWAPGHNRSWHKVAEAVSSPAGVGVTWLEPDYQVYLNASKVPGFADDPTELACRVVDTKSGEANVRFTVSWYYRMNRRSDNVVTSELLAVMDGDWTLKYGERSKQRAQDGDFIFSKEHTDTFNFRIQRTTEEDRGNYYCVVSAWTKQRNNSWVKSKDVFSKPVNIFWALEDSVLVVKARQPKPFFAAGNTFEMTCKVSSKNIKSPRYSVLIMAEKPVGDLSSPNETKYIISLDQDSVVKLENWTDASRVDGVVLEKVQEDEFRYRMYQTQVSDAGLYRCMVTAWSPVRGSLWREAATSLSNPIEIDFQTSGPIFNASVHSDTPSVIRGDLIKLFCIITVEGAALDPDDMAFDVSWFAVHSFGLDKAPVLLSSLDRKGIVTTSRRDWKSDLSLERVSVLEFLLQVHGSEDQDFGNYYCSVTPWVKSPTGSWQKEAEIHSKPVFITVKMDVLNAFKYP
notes: Expressed in Expi293 as signal peptide-ECD-PAR1 cleavage site-Fc; the Fc was removed with thrombin, so a remnant of the PAR1 site may remain; also called PTGFRN ECD; purified PTGFRN ECD
Turning to B1, the binding result is “binds”.
